Measured values published in the RNAGym collection of RNA variant scans (doi:10.1073/pnas.2313332121).

B1: TPR t1 (parent)
chain: GACCAAUCUGCCCUCAGAGCUCGAGAACAUCUUCGGAUGCAGAGGAGGCAGGCUUCGGUGGCGCGAUAGCGCCAACGUCCUCAACCUCCAAUGCAUCCCACCACAUGAUGAUGCCUGAAGAGCCUUGGUUUUUUG

Variants of: B1
Assay: polymerase ribozyme fitness, log enrichment relative to wild type (log ratio); higher = more active; in vitro selection for triplet polymerase activity
In short: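 Each subunit of a heterodimeric triplet polymerase ribozyme was mutagenized into a library by PCR, transcribed, and subjected to one round of in vitro selection, run in triplicate. Libraries were annealed with a biotinylated primer, the partner subunit and triplets, incubated frozen at −7 °C, and extended constructs were gel-excised, captured on streptavidin beads and recovered by RT-PCR. Input and output libraries were sequenced on Illumina, keeping genotypes with ≥10 input reads and ≥1 read per output. Fitness is log base 2 of genotype enrichment divided by wild-type enrichment, from inverse-variance-weighted replicate averages.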

Row | Variant | polymerase ribozyme fitness (log ratio)
1 | C70G G122A | -3.06
2 | C70G G122U | -2.27
3 | C70U C85A C94U U112C | -0.466
4 | C70U C114G | -3.48
5 | C70G A83G U112C | -3.8
6 | C70U G71A | -1.05
7 | C70U G71C | -1.67
8 | G69C C123U | -0.24
9 | C70A U78C | -1.85
10 | C70G U78C G113A A121G | -2.79
11 | C70U A74G | -1.83
12 | C70U A74U | -0.47
13 | G69C U131A | -2.41
14 | G69C C94U U96A | -2.83
15 | C70U A95U C124A | -2.31
16 | G69C C102U A108C A111G C115U U130A | -6.19
17 | C70G A100C C123A | -4.49
18 | C70U C102A G127A | -3.84
19 | C70U A91U G113A | -2.99
20 | C70U G110U G135U | -3.77
21 | C70U C89A A90G U92A | -6.08
22 | C70G C124A G127U U132C | -0.524
23 | C70U C123G | 0.306
24 | C70U C123A | -0.0908

Row | Variant | polymerase ribozyme fitness (log ratio)
25 | C70U C123U | 0.707
26 | C70A G77C | -2.99
27 | G69U C73U | 0.225
28 | G69U G122A | 0.377
29 | C70U U78C A105U G120C U130A | -3.59
30 | G69U A74U G135C | -0.511
31 | G69C C82U U126G | -3.1
32 | C70U G110A | -1.77
33 | C70G A84U C85U C104U | -4.81
34 | G69U G93U G110A | -0.494
35 | G69U C99A U130G | -3.92
36 | C70U G107A | -5.06
37 | C70U G107U | -4.87
38 | C70A C86A G113A C123G | -2.59
39 | C70G C82G C124A U131G | -3.38
40 | C70U G113A | -1.39
41 | G69C C104A | -1.87
42 | G69C C104U | -1.49
43 | C70U G135A | -1.42
44 | C70U U81A | -3.3
45 | C70U C102G | -6.87
46 | C70U G113A C123A | -2.31
47 | G69C C102U | -3.02
48 | C70U C82G G117U | -3.92

Row | Variant | polymerase ribozyme fitness (log ratio)
49 | G69C G71U | -4.82
50 | G69U C72U C79U | -0.113
51 | C70A C73U C99U G107U U109C G117U | -6.35
52 | G69C G93C G122A | -4.01
53 | C70U C85A C102A | -5.05
54 | G69U C85A C101A | -1.66
55 | C70G C104G G110A | -6.86
56 | C70G A74U | -4.98
57 | G69U C80G C98A U130G | -7.2
58 | C70U C104A | -2.32
59 | C70A G77A C97A A121U | -5.66
60 | C70G G93U | -3.28
61 | C70U | -0.414
62 | C70G | -2.49
63 | C70A | -1.51
64 | G69U C80U C102U C104U G120C | 1.02
65 | C70U C115U | -1.84
66 | C70G G120U | -2.36
67 | C70G G120A | -1.34
68 | C70G U112G | -2.86
69 | C70G U112A | -1.98
70 | C70G C85U | -3.79
71 | C70U C72G A75U | -1.29
72 | G69U C104U C115U | 1.66

Row | Variant | polymerase ribozyme fitness (log ratio)
73 | C70G U112G U125C | -3.92
74 | C70G A118U | -1.64
75 | C70G A121G | -0.69
76 | C70G A121U | -0.929
77 | C70A U106C C114A | -4.64
78 | G69U U106C A121U | 2.34
79 | G69C C85U C86A | -3.64
80 | G69U C86U C101U C102U G120C | 0.552
81 | C70U C89A | -2.09
82 | C70U C89U | -1.12
83 | C70A C89A C104U A111U G113A G127C | -6.35
84 | C70G A105G G113U U129G | -6.51
85 | C70G A90C | -4.87
86 | C70G C80U | -2.51
87 | C70A C94U | -1.23
88 | C70U C86U G117A | -2.35
89 | G69C C104A U106C U129A | -5.53
90 | G69U C73G C80A | -7.09
91 | C70A U92A A95U A111C G113C | -6.14
92 | C70A U126C | -2.02
93 | C70A U126G | -3.42
94 | G69U C89A | -0.471
95 | G69U G107C | -4.24
96 | G69U C94U G120A | 1.2

Row | Variant | polymerase ribozyme fitness (log ratio)
97 | G69U U78C | 0.191
98 | C70U A111U | -4.03
99 | C70U A111C | -0.279
100 | G69C C99U | -3.79
101 | G69C U106C | -1.22
102 | C70G C94G C123A | -3.58
103 | G69U C72U U87A G113A | -1.35
104 | C70U C97A C102G U109G G117A | -6.26
105 | C70U G122U | -0.0756
106 | C70U G110U U112G | -6.05
107 | C70G U129A | -4.27
108 | G69C G77A C98U U126C U130C | -3.72
109 | C70U C72G U92A A108U U112C G113A A121G | -6.12
110 | C70U A121G | -0.18
111 | C70U A121U | 0.918
112 | G69C G135C | -1.59
113 | C70A A105G | -4.48
114 | G69C U96C | -2.24
115 | C70A C85A | -3.25
116 | C70A C85U | -2.32
117 | G69U C88A | 0.231
118 | G69U G110A | 0.0569
119 | C70U C88G | -1.63
120 | C70U C88A | -0.884

Row | Variant | polymerase ribozyme fitness (log ratio)
121 | C70A A74U | -3.39
122 | G69U G128C | -1.01
123 | G69U C86A C104U | 0.251
124 | C70U U78C C101A | -1.6
125 | G69C C88G | -2.63
126 | G69C U78G C115U U125A | -5.54
127 | G69U U78C C88U | 0.314
128 | C70U C115U C123G | -1.96
129 | G69U U116G | -2.69
130 | G69U U116C | 0.102
131 | C70U A108G | -2.04
132 | C70G G110U | -4.62
133 | G69C G77A C88A G127A U129A | -5.53
134 | C70G A100C | -4.69
135 | C70A G120U | -1.5
136 | G69C C124G | 0.351
137 | G69U G110C U125C | -1.52
138 | C70U A118U | 0.0135
139 | C70U C80A A90U C123A | -6.41
140 | G69U U112G U125A | 1.09
141 | C70G A111G | -3.21
142 | G69U C97U | 0.163
143 | G69U C97G | -3.33
144 | G69U U112G | 0.676

Row | Variant | polymerase ribozyme fitness (log ratio)
145 | G69C U132A | -2.03
146 | C70U C88G U132C | -1.25
147 | C70A A108U C124A | -5.58
148 | G69C C79G U109G | -6.78
149 | G69U G117C U130C | -2.79
150 | C70U U78C C86G | -0.947
151 | G69U A75U C101U G113C U129A | -2.36
152 | G69U A84C C124A | 1.33
153 | C70G C97U | -2.56
154 | C70G C98U G117A | -5.6
155 | C70U C76G G77A G113C | -3.85
156 | C70U G128U | -1.82
157 | C70A C123G | -0.534
158 | C70A C123U | -0.0495
159 | G69U A74C C104U | 0.0316
160 | G69U C114U | -0.582
161 | C70G C102A | -5.59
162 | G69U C79U A111G U129C U133A | -0.673
163 | C70U C76U G113C C123A | -5.89
164 | G69U C104A U116A C124U | -0.357
165 | C70G A108G | -3.92
166 | G69U C86U | -0.254
167 | C70G A95U C114A | -6.28
